# Experimental data: publication PMC11635053, “Development of a homotrimeric PSMA radioligand based on the NOTI chelating platform” (EJNMMI Radiopharmacy and Chemistry, 2024)
# Tests used:
# [1] = system: PSMA-positive LNCaP cells; experiment: Cell uptake / internalization of 68Ga-labeled conjugates in LNCaP cells; assay type: cell-based, human; details: 1 h incubation, 2.5 pmol per 10^6 cells, 68Ga-labeled
# Protocol: Next, the cellular uptake of the ^68Ga-labeled conjugates 7, 8, and 9 as well as [^68Ga]Ga-PSMA-11 was determined in PSMA-positive LNCaP cells.
# LNCaP cells were seeded (10^6 cells well^−1) in poly-L-lysine coated 6-well plates 24 h before the experiment. Experiments were performed twice in triplicate for each compound. The radiolabeling solutions of [^68Ga]Ga-7, [^68Ga]Ga-8, [^68Ga]Ga-9, and [^68Ga]Ga-PSMA-11 were first diluted with PBS (pH 7.4) to a concentration of […]. 100 µL of this dilution were added to 3900 µL PBS (pH 7.4) to obtain final stock solutions of each radiolabeled compound (0.025 nmol mL^−1).
# On the day of the experiment, the medium was replaced by fresh preheated medium (1.4 mL w/o blocking, 1.3 mL with blocking) and the cells incubated for 1 h at 37 °C. Next, the blocking solution was added (100 μL, 2500 pmol) to the corresponding wells. Finally, the corresponding radiolabeled conjugate (100 μL, 2.5 pmol) was added to a final assay volume of 1.5 mL well^−1. After 1 h incubation time, the supernatants were removed and the cells were washed carefully with ice-cold PBS buffer (2 × 1 mL, pH 7.4) followed by a subsequent glycine–HCl washing step (50 mM, pH 2.8, 2 × 1 mL well^−1). Cells were incubated with the glycine–HCl solution for 4 min at r.t. Next, corresponding fractions were transferred into counting tubes. Subsequently, the cells were lysed by adding NaOH (2 × 1 mL well^−1, 0.1 M) and the lysed fractions were also transferred into counting tubes. As standards, 100 µL of each radiolabeled conjugate stock solution (0.025 nmol mL^−1, 2.5 pmol) were pipetted into counting tubes containing 2 mL PBS buffer. The activity of the standards, the surface bound fractions and the internalized fractions were measured in a Gamma counter. Means were calculated and subtracted by the background. The percentages of unspecific and specific cell-surface bound and internalized activity were calculated from the standards.
# [2] = system: human serum proteins; experiment: in vitro; assay type: in vitro ADME; details: male, Protein binding
# Protocol: To determine the protein bound fraction of each trimeric radiotracer, 100 μL of the radiolabeling solution of the corresponding ^68Ga-labeled conjugate were added to preheated (37 °C) 1000 μL human serum (male, AB, Sigma Aldrich, USA) in triplicates. Samples were incubated for 1 h at 37 °C. After cooling to r.t., the samples were centrifuged utilizing molecular cutoff (30 kDa) centrifuge tubes at 4 G for 5 min at 4 °C. The filters were additionally rinsed with PBS buffer (2 × 100 μL). The background subtracted activity in the filters and the filtrates were determined in a Gamma counter and the percentage of protein bound fractions were calculated.
# [3] = in vivo; design: species or system mice; details: male, NOD/SCID, mouse, iv, total radioactivity
# Protocol: The capability of [^68Ga]Ga-9 to delineate PSMA-expressing tumors in vivo was evaluated by small-animal PET imaging at 1 and 2 h p.i. For this, mice bearing LNCaP xenografts (n = 3) were injected with 1–3 MBq (250–500 pmol) [^68Ga]Ga-9 into a tail vein and subjected to micro-PET/CT imaging at 1 h post-injection (p.i.). PSMA specificity was confirmed by co-injection of 2-PMPA (1 µmol mouse^−1). […] LNCaP tumors were clearly visualized by [^68Ga]Ga-9 and only the kidneys and the bladder as the major excretory organs were visible. […] The kidney uptake was 67.86 ± 8.35% IA g^−1 (n = 3) in the normal group vs. 19.9 ± 4.43% IA g^−1 in the blocking group (n = 3). […] The blood uptake was relatively high at 1 h p.i. with 3.62 ± 0.42% IA g^−1. Uptake in the muscles was low with 0.32 ± 0.12% IA g^−1. […]
# For PET imaging studies, mice were injected with 100 µL sterile saline formulations of 250–500 pmol [^68Ga]Ga-9 (1–3 MBq) by intravenous tail-vein injection and anesthetized with isoflurane (2–4% in air). […] Image counts per second per voxel (cps voxel^−1) were calibrated to activity concentrations (Bq mL^−1) by measuring a 3.5 cm cylinder phantom filled with a known concentration of radioactivity. […]
# Competitive inhibition (blocking) studies were also performed in vivo and measured using static PET imaging to investigate the specificity of the radiotracers for PSMA. […]
compound,measurement,setting,value
"O=C(O)CC[C@H](NC(=O)N[C@@H](CCCCNC(=O)[C@H](Cc1ccc2ccccc2c1)NC(=O)[C@H]1CC[C@H](CNC(=O)CCCCn2ccnc2CN2CCN(Cc3nccn3CCCCC(=O)NC[C@H]3CC[C@H](C(=O)N[C@@H](Cc4ccc5ccccc5c4)C(=O)NCCCC[C@H](NC(=O)N[C@@H](CCC(=O)O)C(=O)O)C(=O)O)CC3)CCN(Cc3nccn3CCCCC(=O)NC[C@H]3CC[C@H](C(=O)N[C@@H](Cc4ccc5ccccc5c4)C(=O)NCCCC[C@H](NC(=O)N[C@@H](CCC(=O)O)C(=O)O)C(=O)O)CC3)CC2)CC1)C(=O)O)C(=O)O [^nat/68Ga-9, metal not drawn]",Cell-surface bound fraction,[1],1.5 ± 0.5%
same,fraction unbound at 1 h,[2],< 0.05
same,tissue to tissue ratio at 1 h,[3]; Tumor-to-kidney ratio,0.24
same,tissue to tissue ratio at 1 h,[3]; Tumor-to-liver ratio,5.17
